Source: patent publication US20160002672A1, “PRODUCTION OF ISOPRENE, ISOPRENOID, AND ISOPRENOID PRECURSORS USING AN ALTERNATIVE LOWER MEVALONATE PATHWAY” (DANISCO US INC., priority 2012, published 2016)
Several values for one entry are separate records, joined by “and”; a condition that tells them apart may be missing. Equal entries are not always repeated.

Assays:
[1] = Kinetic characterization of decarboxylases (coupled spectrophotometric assay), diphosphomevalonate as substrate; format: biochemical; conditions: 34° C., 5 mM ATP, 10-250 μM (R)-diphosphomevalonate; for kcat ± SD, Diphosphomevalonate: * using 1 mM substrate; for Km: read-out: KM ± SD, Diphosphomevalonate
Method: (§1) PMevDCs were incubated in the presence of mevalonate, phosphomevalonate, diphosphomevalonate, ATP, MgCl2 and the products of the reactions were confirmed by LC-MS. Mevalonate decarboxylase (MVD) from Saccharomyces cerevisiae was used as a reference. The catalytic activities of the decarboxylases were measured using a modified spectrophotometric assay that coupled ADP formation to pyruvate synthesis and reduction to lactate. The initial rate of disappearance of NADH was monitored at 340 nm on a SpectraMax M5 (Molecular Devices) to measure the reaction rate catalyzed by the PMevDCs. Samples for reaction rate studies contained 0.8 mM phosphoenolpyruvate, 0.05 mM DTT, 0.32 mM NADH, 10 mM MgCl2, 4 U lactate dehydrogenase, 4 U pyruvate kinase, 5 mM ATP and 10-250 μM (R)-phosphomevalonate or 10-250 μM (R)-diphosphomevalonate. All reactions were performed at 34° C. Reaction rate data was processed using Microsoft Excel and kinetic parameters were determined using Kaleidagraph.

[2] = SDS-PAGE analysis of His-tagged and TEV protease cleaved PMevDCs and IPKs (solubility); format: physicochemical; conditions: FIG. 9
Method: Strains MCM2257, MCM2258, MCM2259, MCM2260, MCM2261, and MCM2262 were inoculated in 1 liter of LB medium containing the appropriate antibiotic and incubated at 34° C. for 7 hours from overnight cultures grown at 34° C. in LB broth containing the appropriate antibiotic (Table 7). Cultures at an OD 0.5-0.7 were induced with 200 μM IPTG. After induction, cells were harvested by centrifugation at 10000×g for 10 minutes. After removal of the supernatant, the cell pellets were resuspended in 40 mL lysis buffer containing 50 mM KPO4, pH 8.0, 0.3 M NaCl, 0.02 mM imidizole, 1 mg/mL lysozyme, and 1 mg/mL DNAase. The cells were lysed using a french pressure cell at 14,000 psi and the cell lysate was centrifuged at 50,000×g for 1 hour. The supernatant was collected, passed over a Ni-affinity resin before the resin was washed with 10 column volumes of lysis buffer containing 50 mM imidazole. The protein was eluted with 5 column volumes of lysis buffer containing 250 mM imidizole. Collected fractions were concentrated and passed over PD-10 columns for buffer exchange and the final collected protein samples were >95% pure according to SDS-PAGE analysis. The purified samples were incubated with TEV protease overnight at 4° C. to remove histidine tags from the purified proteins. The digested samples were subsequently passed over Ni-affinity resin and the flow-through was collected and analyzed by SDS-PAGE.
H. aurantiacus PMevDC (lanes 2 and 3), H. aurantiacus IPK (lanes 4 and 5), and S378Pa3-2 PMevDC (lanes 6 and 7) were all soluble whether they were expressed with an attached His-tag or without a His-Tag (FIG. 9).

screening host V. 05 = assay: Activity-based screening for PMevDC in MVA-auxotrophic screening host; format: cell-based, E. coli; conditions: for growth / complementation of the lower MVA pathway in screening host in presence of MVA: 500 μM MVA
[3] = In vitro metabolite measurement, substrate conversion by crude E. coli lysate, substrate IP; format: biochemical; conditions: crude extract from E. coli DH10b overexpressing S378Pa3-2
Method: (§2) In vitro assays were done with crude extracts from E. coli DH10b overexpressing pMCM2212. […] Negative control assays were done with extracts of E. coli harboring pTrcHis2b without insert. Substrates for in vitro conversions were mevalonate (MVA), mevalonate phosphate (MVP) also referred to as mevalonate 5-phosphate, mevalonate diphosphate (MVPP) also referred to as mevalonate 5-pyrophosphate, and isopentenyl phosphate (IP). Substrate conversion and product formation was analyzed by LC/MS.
(§3) Mass spectrometric analysis of metabolites was performed using a TSQ Quantim triple quadrupole instrument (Thermo Scientific). System control, data acquisition, and data analysis were done with XCalibur and LCQuan software (Thermo Scientific). About 10 μL samples were applied to a C18 Synergi MAX-RP HPLC column (150×2 mm, 4 uM, 80 A, Phenomenex) equipped with the manufacturer-recommended guard cartridge. The column was eluted with a gradient of 15 mM acetic acid+10 mM tributylamine in MilliQ-grade water (solvent A) and LCMS-grade methanol from Honeywell, Burdick & Jackson (solvent B). […] Concentrations of metabolites in cell extracts were determined based on calibration curves obtained by injection of commercial standards dissolved in 20% methanol/50 mM NH4Ac buffer (pH 7.0) to 0.5 ppm to 50 ppm final concentration. […]

[4] = In vitro metabolite measurement, substrate conversion by crude E. coli lysate, substrate MVP; format: biochemical; conditions: crude extract from E. coli DH10b overexpressing S378Pa3-2
Method: as §2, §3

[5] = In vitro metabolite measurement, substrate conversion by crude E. coli lysate, substrate MVPP; format: biochemical; conditions: crude extract from E. coli DH10b overexpressing S378Pa3-2
Method: as §2, §3

[6] = Kinetic characterization of decarboxylases (coupled spectrophotometric assay), phosphomevalonate as substrate; format: biochemical; conditions: 34° C., 5 mM ATP, 10-250 μM (R)-phosphomevalonate, * using 1 mM substrate
Method: as §1

[7] = In vitro metabolite measurement, substrate conversion by crude E. coli lysate, substrate MVA; format: biochemical; conditions: crude extract from E. coli DH10b overexpressing S378Pa3-2
Method: as §2, §3

[8] = listed as Herpetosiphon aurantiacus ATCC 23779 PMevDC

Row | Molecule | kcat ± SD, Diphosphomevalonate [1] | Km [1] [µM] | solubility of expressed enzyme with or without His-tag [2] | growth / complementation of the lower MVA pathway in screening host in presence of MVA (screening host V. 05) | growth / complementation of the lower MVA pathway in screening host in presence of MVA (screening host V. 05; listed as cds#2) | growth in presence of Fosmidomycin (screening host V. 05; Fosmidomycin 32 μg/ml, 500 μM MVA supplied) | use of IP as substrate [3] | activity of crude extract on MVP [4] | activity of crude extract on MVPP [5] | kcat ± SD, Phosphomevalonate [6] | use of MVA as substrate [7] | kcat ± SD, Diphosphomevalonate [1, 8] | kcat ± SD, Phosphomevalonate [6, 8] [s⁻¹]
1 | S. cerevisiae MVD: Mevalonate decarboxylase (MVD) from Saccharomyces cerevisiae used as a reference (protein, UniProt P32377 1-396, looked up) Diphosphomevalonate …: MTVYTASVTAPVNIATLKYWGKRDTKLNLPTNSSISVTLSQDDLRTLTSAATAPEFERDTLWLNGEPHSIDNERTQNCLRDLRQLRKEMESKDASLPTLSQWKLHIVSENNFPTAAGLASSAAGFAALVSAIAKLYQLPQSTSEISRIARKGSGSACRSLFGGYVAWEMGKAEDGHDSMAVQIADSSDWPQMKACVLVVSDIKKDVSSTQGMQLTVATSELFKERIEHVVPKRFEVMRKAIVEKDFATFAKETMMDSNSFHATCLDSFPPIFYMNDTSKRIISWCHTINQFYGETIVAYTFDAGPNAVLYYLAENESKLFAFIYKLFGSVPGWDKKFTTEQLEAFNHQFESSNFTARELDLELQKDVARVILTQVGSGPQETNESLIDAKTGLPKE | 11.6 s⁻¹ and 11.6 ± 0.6 s⁻¹ | 44 |  |  |  |  |  |  |  |  |  |  | 
2 | H. aurantiacus IPK: Herpetosiphon aurantiacus isopentenyl phosphate kinase, SEQ ID NO: 19, Genbank YP_001545053 (protein, listed as Herpetosiphon aurantiacus) MNKPIFIKLGGSMLTDKTTAERLVDQTLKQVVTDLSAWRQAHPNQPILLGHGGGSFGHYWAERYQTAQGIINEQSWWGVARVADAMARLNRAVVGACLDADLPAIGIQPMASSLANAGEIQQIGSQPLATLLAAGTIPVIYGDVLLDVAQGCTIASTERIFSALVGPLQPTQIILLGEQAVYDADPRQHADAQPIPLINRTNYATIIARLGGSHGVDVTGGMRNKVEAMWQLVQQAPQLEIWICGPQQLQSALSGQLNGPGTIIKLD |  |  | soluble |  |  |  |  |  |  |  |  |  | 
3 | S378Pa3-2 PMevDC: phosphomevalonate decarboxylase isolated from a soil metagenomic library, SEQ ID NO: 18 (protein, Isolated from a metagenomic library constructed from soil samples) MDYYYRVINNNEIPMKSPEFLEVSALAHPNIAFIKYWGNRDNDLRLPCNGSLSMNLSGLETKTSVQFDPSLSADQFKLSGKPIEWDALRRVSDFLEIVRDLAGISFFAKVESENSFPSGAGIASSASAFAALALAASKAAGLSLDEEALSRLARRGSGSACRSIPDGFVEWQAGSTDQDSFAWSIAPADHWDLVDLICVLNSEHKTVGSTGGHALASTSDLHLLRQERVEERIEICRKAILDRDFEHFASVVEEDSNLMHAVMRTSKPPLNYWLPETEVILWKVIHWRKKGIPVCSTVDAGPNVHVLTLSSEAEKVEALLKECPGVQSIFKARAGQGAQLI | 1.09 s⁻¹ and 1.09 ± 0.09 s⁻¹ | 22 | soluble | sustained growth | able to complement the lower MVA pathway | grew unrestricted | not used as substrates | activity on MVP | some activity on MVPP | 2.9 s⁻¹ and 2.9 ± 0.5 s⁻¹ | not used as substrates |  | 
4 | Herpetosiphon PMevDC: Herpetosiphon aurantiacus phosphomevalonate decarboxylase, SEQ ID NO: 16, Genbank YP_001544383 (protein, listed as Herpetosiphon aurantiacus) MKQLSHAATAVACANIAFIKYWGQHDSQLTLPTNGSISMNLDGCLTETTVQCLPEAVDDSVWLALSGGEEVQAKGRQFERVIQQIERLRQLAGVTERVEVRSRNNFPSDAGIASSAAAFAALTRAAASAFRLELDEAELSRLTRLSGSGSACRSIPAGFVEWYNDGTHAGSYAAQIAPPEHWNLVDIVAVISTEAKHVASTSGHSVATTSPYFSVRLEGIEQRLADVRQGILERDIERLGRASEADAMSMHVIAMTAQPSTMYWLPGTLAVMQAVQRWRAQDNLQSYWTIDAGPNVHVICEAKDAPEVEARLCELDAVQWTIVNGAGPEARLVG | <0.02* s^−1 |  | soluble |  |  |  |  |  |  | 3.3 ± 0.2 s⁻¹ |  | less than 0.02 s^−1 | 3.3
